Assay [1] has as its target T1, Kv1.3 (Homo sapiens, UniProt P22001). Briefly: patch-clamp kinetics (koff/kon). Background: In patch-clamp work, channel activity is measured electrically.
Assay [2] concerns the target T2, Kv1.2 (Homo sapiens, UniProt P16389). Briefly: patch-clamp kinetics (koff/kon).
The target of assay [3] is T1, Kv1.3. As to the kind of experiment: patch-clamp dose-response.
The target of assay [4] is T2, Kv1.2. Briefly: patch-clamp dose-response.

Ends that are not written are not given here.

This note sets out measurements from publication PMC8511391 (2021).

T2 sequence (P16389 whole entry): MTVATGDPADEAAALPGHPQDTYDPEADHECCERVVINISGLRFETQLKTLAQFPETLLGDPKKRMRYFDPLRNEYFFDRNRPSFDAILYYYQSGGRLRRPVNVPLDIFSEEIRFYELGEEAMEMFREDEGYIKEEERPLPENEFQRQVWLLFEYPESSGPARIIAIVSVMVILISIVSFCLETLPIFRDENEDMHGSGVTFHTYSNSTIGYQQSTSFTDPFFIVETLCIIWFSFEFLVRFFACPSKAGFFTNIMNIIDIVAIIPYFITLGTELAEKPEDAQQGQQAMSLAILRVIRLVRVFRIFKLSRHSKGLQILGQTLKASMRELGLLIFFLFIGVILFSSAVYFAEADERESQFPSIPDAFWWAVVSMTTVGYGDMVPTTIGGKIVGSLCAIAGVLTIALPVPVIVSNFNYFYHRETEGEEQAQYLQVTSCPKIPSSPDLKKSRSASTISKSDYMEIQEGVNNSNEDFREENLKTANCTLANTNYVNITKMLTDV
T1 sequence (P22001 whole entry): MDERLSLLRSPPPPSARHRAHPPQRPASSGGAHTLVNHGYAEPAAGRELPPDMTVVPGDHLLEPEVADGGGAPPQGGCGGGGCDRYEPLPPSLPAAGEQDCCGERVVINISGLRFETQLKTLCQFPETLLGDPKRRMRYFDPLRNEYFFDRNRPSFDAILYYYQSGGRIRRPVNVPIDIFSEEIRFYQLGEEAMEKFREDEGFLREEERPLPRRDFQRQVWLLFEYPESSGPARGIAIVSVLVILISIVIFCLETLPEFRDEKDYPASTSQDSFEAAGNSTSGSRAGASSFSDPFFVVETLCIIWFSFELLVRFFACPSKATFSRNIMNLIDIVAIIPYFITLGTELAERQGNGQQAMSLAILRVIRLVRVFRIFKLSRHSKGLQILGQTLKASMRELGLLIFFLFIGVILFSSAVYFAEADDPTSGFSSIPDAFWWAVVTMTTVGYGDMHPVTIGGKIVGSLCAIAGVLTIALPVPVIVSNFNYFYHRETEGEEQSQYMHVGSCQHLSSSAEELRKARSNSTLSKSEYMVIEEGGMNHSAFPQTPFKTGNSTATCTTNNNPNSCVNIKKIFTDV

Broadly, the Kd is the concentration at which binding is half-saturated. For {Glu-Phe-H2N-H2N-H2N-H2N-H2N-H2N}-LQIEGRTIINVKCTSPKQCLPPCKAQFGQSAGAKCMNGKCKCYPH (not fully specified; ends and bridges not checked) [Margatoxin (TrMgTx)], the Kd in assay [1] is 0.0839 nM; in assay [2], 0.0623 nM; in assay [3], 0.086 nM; in assay [4], 0.064 nM.

On to TIINVKCTSPKQCLPPCKAQFGQSAGAKCMNGKCKCYPH [Margatoxin (UrMgTx)], for which the Kd in assay [1] came out at 0.0522 nM; in assay [2], 0.015 nM; in assay [3] it was 0.05 nM; in assay [4], 0.014 nM.
